Data from PMC4150798 (Nucleic Acids Research, 2014).

Experiments:
[1] = molecular target: CPEB4 RRM1–RRM2 (463–665) (human) (UniProt Q17RY0); assay: semi-native SDS PAGE
[2] = molecular target: CPEB4 RRM1–RRM2 (463–665) (human) (UniProt Q17RY0); assay: native MS
[3] = molecular target: the molecule itself; assay: semi-native SDS PAGE

Row | Molecule | maximum dimeric population [1] [%] | stoichiometry N [1] | stoichiometry N [2] | stoichiometry N [3]
1 | CPEB4 RRM1–RRM2 (463–665) (from UniProt Q17RY0 463-665) (domain or fragment) | < 10 | 2 | 2 | –
2 | CPEB4 RRM1 (463–573) (domain or fragment, human, UniProt Q17RY0 463-573, looked up) NGERVERYSRKVFVGGLPPDIDEDEITASFRRFGPLIVDWPHKAESKSYFPPKGYAFLLFQDESSVQALIDACIEEDGKLYLCVSSPTIKDKPVQIRPWNLSDSDFVMDGS | – | – | – | 2
